The record followed here is patent US20230374147A1 (HUMMINGBIRD BIOSCIENCE PTE, published 2023).

Test [1] concerns the target T1, His-tagged mouse BCMA (Acro Biosystems, BCA-M52H3) (mouse, UniProt O88472 1-49).
T1 construct: Bought protein; not shown: His tag
T1 chain: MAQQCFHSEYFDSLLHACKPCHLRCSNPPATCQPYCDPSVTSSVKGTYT
Nature of the test: ELISA, IgG purified from hybridoma supernatant, coated His-tagged antigen.

The target in test [2] is T2, His-tagged human BCMA (Acro Biosystems, Cat. #BCA-H522y) (human, UniProt Q02223 1-54).
T2 construct: also called huBCMA; P1; not shown: His tag
T2 sequence: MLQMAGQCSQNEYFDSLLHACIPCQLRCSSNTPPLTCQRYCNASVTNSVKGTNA
The test is described as above.

Test [3] deals with T3, human BCMA expressed on cells (human, UniProt Q02223 1-184).
T3 construct: the cell line is named under assay; also called wildtype human BCMA
T3 sequence: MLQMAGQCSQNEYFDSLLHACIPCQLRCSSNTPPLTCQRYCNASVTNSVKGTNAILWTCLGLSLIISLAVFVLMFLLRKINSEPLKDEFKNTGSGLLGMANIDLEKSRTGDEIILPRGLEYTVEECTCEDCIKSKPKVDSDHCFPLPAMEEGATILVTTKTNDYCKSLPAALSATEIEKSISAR
Nature of the test: flow cytometry, hybridoma supernatant, HEK293T cells stably expressing human BCMA. A general note: Flow cytometry measures light scatter and fluorescence of single cells or particles in a stream.

For test [4], the target named is T1, His-tagged mouse BCMA (Acro Biosystems, …). Put plainly: ELISA, hybridoma supernatant, coated His-tagged antigen. For orientation: In an ELISA, binding on a coated surface is turned into a signal by an enzyme label.
In test [5] the target is T2, His-tagged human BCMA (Acro Biosystems, …). Described as above.
For test [6], the target named is T4, His-tagged cynomolgous macaque BCMA (Acro Biosystems, BCA-C52H7) (cynomolgus macaque, UniProt Q02223 1-54 (human entry)).
T4 construct: Bought protein; also called cyno BCMA; CyBCMA; not shown: His tag
The test is described as above.

The target in test [7] is T4, His-tagged cynomolgous macaque BCMA …. Put plainly: ELISA, coated Cyno BCMA-His.
For test [8], the target named is T5, recombinant his-tagged human TACI (Sinobiological cat #11937-H08H) (human, UniProt O14836 1-165).
T5 construct: Bought protein; also called Human TACI-His; huTACI; not shown: His tag
T5 sequence: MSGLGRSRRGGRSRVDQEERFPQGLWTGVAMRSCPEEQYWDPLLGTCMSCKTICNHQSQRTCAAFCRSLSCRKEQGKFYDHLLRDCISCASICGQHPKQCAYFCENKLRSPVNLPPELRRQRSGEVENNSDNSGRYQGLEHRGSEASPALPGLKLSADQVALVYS
Nature of the test: BLI, IgG on HFC tip, His-tagged human TACI 300-37.5 nM. On the technique in general: BLI is a label-free optical method that tracks binding on a fibre tip over time.

The target of test [9] is T2, His-tagged human BCMA (Acro Biosystems, …). Put plainly: BLI, IgG on HFC tip, His-tagged human BCMA 300-37.5 nM.
Test [10] concerns the target T6, Human HER3-His (Sino Biological, 10201-H08H) (human, UniProt P21860 20-643).
T6 construct: Specificity control; also called Human HERS-His
Put plainly: ELISA, coated His-tagged antigen.

Test [11] has as its target T3, human BCMA expressed on cells. Nature of the test: flow cytometry, H929 cells (BCMA+).
The target in test [12] is T7, Human BCMA-His (Sino Biological, 10620-H08H) (human, UniProt Q02223 1-54).
T7 construct: not shown: His tag
T7 sequence: T2 sequence
Put plainly: ELISA, coated Human BCMA-His.

Test [13] addresses T8, Cyno TACI-His (Sino Biological, 90976-C08H) (cynomolgus macaque, UniProt G7PTR7 1-165).
T8 construct: Bought protein; also called cynomolgous macaque TACI; CyTACI
T8 sequence: T5 sequence with F21S, T52A, A64T, S70N, K77R, L139S, V160L
Put plainly: BLI, IgG on HFC tip, His-tagged cynomolgus TACI 300-37.5 nM.

Test [14] addresses T4, His-tagged cynomolgous macaque BCMA …. Put plainly: BLI, IgG on HFC tip, His-tagged cynomolgus BCMA 300-37.5 nM.
For test [15], the target named is T3, human BCMA expressed on cells. Put plainly: flow cytometry, fixed RPMI 8226 cells (BCMA+, TACI+: the cells carry both targets).
Test [16] has as its target T8, Cyno TACI-His (Sino Biological, …). Put plainly: ELISA, coated Cyno TACI-His.
Test [17] has as its target T5, recombinant his-tagged human TACI …. Put plainly: ELISA, coated Human TACI-His.
For test [18] the target is unchanged. Nature of the test: BLI (Gator), antibody loaded on HFC biosensor, His-tagged antigen as analyte.
The target in test [19] is T2, His-tagged human BCMA (Acro Biosystems, …). The description is as above.
Test [20] has as its target T4, His-tagged cynomolgous macaque BCMA …. The test is described as above.

The EC50 is the midpoint of the concentration-response curve. In general, Kd refers to the equilibrium constant for the complex coming apart. As a reminder, the koff is a measure of how fast the partners let go of each other. A word on the kon: it is the rate constant with which the complex forms.

Residue numbers refer to the chain shown, from its start.

B1: 539-SP7-F4 (antibody produced by the hybridoma) (antibody, V domains shown)
VH: EVQLQQSGPELVKPGASMKISCKASGYSFTGYIMNWVKQSHGKNLEWIGLINPYNGDSIYNQKFKGKATLTVDKSSSTAYMELFSLTSEDSTVYYCAAGEEFAYWGQGTLVTVSA
VL: DIQMTQTSSSLSASLGDRVTISCRASQDISIYLNWFQQKPDGTVKLLIYFTSRLHPGVPSRFSASGSGTDYSLTISHLEHEDIATYFCQQGNTLPRTFGGGTKVELK
notes: Mouse antibody from B cell hybridoma (culture supernatant or IgG purified from it)
Consider B1, for which the values for the EC50 in test [1] and in test [2] were 14.6 µg/mL and 0.0182 µg/mL, respectively. For the same molecule, the “% Parent (percent positive cells)” value in test [3] was determined as 63.8%. Moreover, the “ELISA values (OD 450 nm)” value in test [4] came out at 0.318 OD; in test [5], 0.893 OD; in test [6] it was 2.35 OD.

B2: 1C8-402 hIgG1 (antibody)
heavy: not shown
light: DIQMTQSPSSLSASVGDRVTITCRASQDISNYLSWYQQKPGKAPKLLMRYTSRLHSGVPSRFSGSGSGTDFTLTISSLEQEDFATYYCQQGNLFPPTFGGGTKVEIKRTVAAPSVFIFPPSDEQLKSGTASVVCLLNNFYPREAKVQWKVDNALQSGNSQESVTEQDSKDSTYSLSSTLTLSKADYEKHKVYACEVTHQGLSSPVTKSFNRGEC
notes: also called [90]
For B2, the EC50 in test [7] was 2 pM; in test [11], 128 pM; in test [12] it was 110 pM; in test [15], 136 pM; in test [16], 4 pM; in test [17] it was 20 pM. The Kd is 70200 pM in test [8], 791 pM in test [9], 2590 pM in test [13] and 2400 pM in test [14]. For the same molecule, the koff in test [8] worked out at 0.0576 s⁻¹; in test [9], 0.00312 s⁻¹; in test [13], 0.00186 s⁻¹; in [14], 0.00272 s⁻¹. The kon in [8] was found to be 821000 M⁻¹ s⁻¹; in test [9], 3.95e+06 M⁻¹ s⁻¹; in test [13], 718000 M⁻¹ s⁻¹; in test [14], 1.13e+06 M⁻¹ s⁻¹. For the same molecule, the binding result in test [10] is listed as “no binding (tested: 3 µg/ml (highest concentration))”.

B3: 1C8-610 hIgG1 (antibody, V domains shown)
VH: QVQLVQSGAEVKKPGASVKVSCKASGYTFTNYVMFWVKQKPGQGLEWMGYITPYNDGTKYAQKFQGKVTMTSDKSTSTVYMELSSLTSEDTAVYYCARYDYEGSFDYWGQGTLVTVSS
VL: DIQMTQSPSSLSASVGDRVTITCRASQDISNYLNWYQQKPGKAPKLLMRYTSRFHSGVPSRFSGSGSGTDFTLTISSLEQEDFATYYCQQGNTFPPTSGGGTKVEIKR
notes: also called [93]; hu1C8-610
For the molecule B3, the EC50 was 89 pM in [7]; 67.7 pM in test [11]; 10 pM in test [12]; 134 pM in test [15]; 7 pM in test [16]; 10 pM in test [17]. Moreover, the Kd in test [8] was 20800 pM; in [9], 650 pM; in test [13] it was 1250 pM; in test [14], 22800 pM. Moreover, the koff turned out to be 0.0205 s⁻¹ in test [8], 0.00307 s⁻¹ in test [9], 0.000839 s⁻¹ in test [13] and 0.0291 s⁻¹ in test [14]. For the same molecule, the kon is 988000 M⁻¹ s⁻¹ in test [8], 4.71e+06 M⁻¹ s⁻¹ in test [9], 673000 M⁻¹ s⁻¹ in [13] and 1.28e+06 M⁻¹ s⁻¹ in test [14]. Besides, in [10], the binding result is listed as “no binding (tested: 3 µg/ml (highest concentration))”.

B4: 1C8-25 hIgG1 (antibody, V domains shown)
VH: QVQLVQSGAEVKKPGASVKVSCKASGYTFTNYVMHWVRQAPGQRLEWMGYILPYNDGTKYSQKFQGRVTITRDTSASTAYMELSSLRSEDTAVYYCARYDWEGSFDYWGQGTTVTVSS
VL: B3 VL with S30G, P44V, F54L, E79Q, Q80P, N92F, S98F, V104L
notes: also called [95]
For the molecule B4, the binding result in [18], in [19] and in test [20] was “binds” each time.

B5: 1C8-27 hIgG1 (antibody, V domains shown)
VH: B4 VH
VL: B3 VL with R24A, P44V, F54L, E79Q, Q80P, T93R, S98F, V104L
notes: also called [96]
With B5, the binding result in test [18], in test [19] and in test [20] was “binds” throughout.

B6: 538-SP5-B10 (antibody produced by the hybridoma) (antibody, V domains shown)
VH: EVQLQQSGPELVKPGASVKMSCKASGYTFTSYVMHWVKQKPGRGLEWIAYILPFNDVTKYNEKFKGKATLTSDKSSNTAYMELSSLTSEDSAVYYCARWEWDDGYFDYWGQGTTLTVSS
VL: DAVMTQTPLSLPVSLGDQASISCRSSQSLENSNGNTYLNWYLQKPGQSPQLLIYRVSNRFSGVLDRFSGSGSGTDFTLKISRVEAEDLGVYFCLQVSHVPFTFGAGTKLELK
notes: as for B1
Consider B6, for which the results for the EC50 in [1] and in test [2] were 21 µg/mL and 0.0358 µg/mL, respectively. Also, in [3], the “% Parent (percent positive cells)” value is 70.8%. The “ELISA values (OD 450 nm)” value in test [4] came out at 0.247 OD; in test [5] it was 0.812 OD; in [6], 2.44 OD.

B7: 539-SP1-C8 (antibody produced by the hybridoma) (antibody, V domains shown)
VH: EVQLQQSGPELVKPGSSVKMSCKASGYTFTNYVMHWVKQKPGQGLEWIGYILPYNDGTKYNEKFKGKATLTSDKSSSTAYMEFSVLTSEDSAVYYCARYDYEGSFDYWGQGTALTVSS
VL: DIQMTQTTSSLSASLGDRVTISCRASQDISNYLNWYQQKPDGTVKLLMCYTSRLHSGVPSRFSGSGSGTDFSLTISNLEQEDIATYFCQQGNTFPPTFGGGTKLEIK
notes: as for B1
Take B7: the EC50 in test [1] is 9.19 µg/mL; in [2] it was 0.0299 µg/mL. Moreover, in test [3], the “% Parent (percent positive cells)” value worked out at 56.5%. For the same molecule, the entries for the “ELISA values (OD 450 nm)” value in [4], in [5] and in test [6] were 0.339 OD, 0.686 OD and 2.04 OD, respectively.
